Tests used:
[1] = target: T1, DnaA (AaDnaA, truncated) (Aquifex aeolicus, UniProt O66659 77-399); assay: smPIFE
T1 sequence: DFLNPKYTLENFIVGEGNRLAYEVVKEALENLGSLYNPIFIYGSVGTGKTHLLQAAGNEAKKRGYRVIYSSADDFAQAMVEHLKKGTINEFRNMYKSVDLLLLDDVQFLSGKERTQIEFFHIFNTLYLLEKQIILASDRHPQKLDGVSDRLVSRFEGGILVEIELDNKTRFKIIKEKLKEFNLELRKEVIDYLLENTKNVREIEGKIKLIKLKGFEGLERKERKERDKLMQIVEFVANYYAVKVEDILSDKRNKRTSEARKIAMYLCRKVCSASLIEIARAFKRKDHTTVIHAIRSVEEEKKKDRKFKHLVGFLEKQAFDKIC

[2] = target: T1, DnaA (AaDnaA, truncated); assay: smPIFE; remark: listed apart in the source
[3] = target: T1, DnaA (AaDnaA, truncated); assay: smPIFE; remark: listed apart in the source
[4] = target: T1, DnaA (AaDnaA, truncated); assay: smFRET
[5] = target: T1, DnaA (AaDnaA, truncated); assay: smPIFE; remark: listed apart in the source
[6] = target: T1, DnaA (AaDnaA, truncated); assay: smPIFE; remark: listed apart in the source

B1: 5'-OP21 (Cy3 only) (mixed)
DNA 1: TTTTTTTTTTTTTTTTTTTTTCGGAGCGACGGCAGCGGT
DNA 2: ACCGCTGCCGTCGCTCCG
binding result [1]: binds

B2: 3'-OP21 (Cy3 only) (mixed)
DNA 1: TTTTTTTTTTTTTTTTTTTTTCGGAGCGACGGCAGCGGT
DNA 2: ACCGCTGCCGTCGCTCCG
modifications: C6-amino-dT at position 21
binding result [2]: binds

B3: pdT21 (Cy3 only, PIFE) (mixed)
DNA 1: TGGCGACGGCAGCGAGGCTTTTTTTTTTTTTTTTTTTTT
DNA 2: GCCTCGCTGCCGTCGCCA
binding result [3]: binds

B4: pdT21 (mixed)
DNA 1: TGGCGACGGCAGCGAGGCTTTTTTTTTTTTTTTTTTTTT
DNA 2: GCCTCGCTGCCGTCGCCA
binding result [4]: binds

B5: pdT3+17 (Cy3 only) (mixed)
DNA 1: TGGCGACGGCAGCGAGGCTTTTTTTTTTTTTTTTTTTTT
DNA 2: GCCTCGCTGCCGTCGCCA
modifications: C6-amino-dT at position 22
binding result [5]: binds

B6: pdTcontrol (Cy3 only) (mixed)
DNA 1: TGGCGACGGCAGCGAGGCTTTTTTTTTTTTTTTTTTTTT
DNA 2: GCCTCGCTGCCGTCGCCA
modifications: C6-amino-dT at position 19
binding result [6]: binds

From paper PMC4288177
